Source: publication PMC9261936 (Biochemistry, 2022)
Primed or numbered codes have the meaning given here. *: point of attachment. FITC = O=C1OC2(c3ccc(O)cc3Oc3cc(O)ccc32)c2ccc(NC(=S)*)cc21; Dnp′ = not defined here; CH2Cl = ClC*

Legend:
SaPrp [1] = target: T1, SaPrp (Staphylococcus aureus, UniProt Q2FXS9, N63Q); assay type: biochemical; conditions: compound at 100 μM, FITC-conjugated peptide
T1 sequence (Q2FXS9 1-106 N63Q): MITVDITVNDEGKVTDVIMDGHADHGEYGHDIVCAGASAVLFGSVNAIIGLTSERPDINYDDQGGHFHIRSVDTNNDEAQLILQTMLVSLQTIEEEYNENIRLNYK

SaPrp [2] = target: T1, SaPrp; experiment: Michaelis–Menten steady-state kinetics, cleavage of FITC-[…]-Dnp; assay type: biochemical
SaPrp [3] = experiment: Covalent complex formation with SaPrp, mass spectrometry; assay type: biochemical, Staphylococcus aureus; conditions: 2.6-fold molar excess over SaPrp, 1 h, room temperature
[4] = other cysteine proteases, means and standard deviations; cited from earlier work

## COC([CH2][Hg+])CNC(=O)c1ccccc1OCC(=O)O.[OH-] (stereo not drawn) [Compound 4, Mersalyl Acid]
SaPrp [1]
  Inhibition of Prp at 100 μM: Prp could not cleave the peptide

## FITC-KLNLQFFASKK-Dnp ({FITC}-KLNLQFFASKK-{Dnp′}) [Compound 1]
SaPrp [2]; FITC-KLNLQFFASKK-Dnp substrate 0.2–20 μM, 48.2 nM SaPrp (monomer)
  Vmax: 11 ± 4.0 nM/s
SaPrp [2]; FITC-KLNLQFFASKK-Dnp substrate, ET constrained to 42.8 nM active sites
  kcat: 0.26 ± 0.05 s^–1

## acetyl-KLNLQFF-chloromethylketone (Ac-KLNLQFF-CH2Cl; SMILES CC(=O)N[C@@H](CCCCN)C(=O)N[C@@H](CC(C)C)C(=O)N[C@@H](CC(N)=O)C(=O)N[C@@H](CC(C)C)C(=O)N[C@@H](CCC(N)=O)C(=O)N[C@@H](Cc1ccccc1)C(=O)N[C@@H](Cc1ccccc1)C(=O)CCl) [Ac-KLNLQFF-CMK]
SaPrp [3]
  Formation of the covalent complex with SaPrp: > 95%

B1: papain: literature comparator cysteine protease (protein, UniProt P00784 134-345, looked up)
Papain: IPEYVDWRQKGAVTPVKNQGSCGSCWAFSAVVTIEGIIKIRTGNLNEYSEQELLDCDRRSYGCNGGYPWSALQLVAQYGIHYRNTYPYEGVQRYCRSREKGPYAAKTDGVRQVQPYNEGALLYSIANQPVSVVLEAAGKDFQLYRGGIFVGPCGNKVDHAVAAVGYGPNYILIKNSWGTGWGENGYIRIKRGTGNSYGVCGLYTSSFYPVKN
[4]
  kcat: 0.0162 ± 0.000135 s^–1

B2: μ-calpain: literature comparator cysteine protease (protein, UniProt P07384 2-714; P04632 1-268, looked up)
Calpain-1 catalytic subunit: SEEIITPVYCTGVSAQVQKQRARELGLGRHENAIKYLGQDYEQLRVRCLQSGTLFRDEAFPPVPQSLGYKDLGPNSSKTYGIKWKRPTELLSNPQFIVDGATRTDICQGALGDCWLLAAIASLTLNDTLLHRVVPHGQSFQNGYAGIFHFQLWQFGEWVDVVVDDLLPIKDGKLVFVHSAEGNEFWSALLEKAYAKVNGSYEALSGGSTSEGFEDFTGGVTEWYELRKAPSDLYQIILKALERGSLLGCSIDISSVLDMEAITFKKLVKGHAYSVTGAKQVNYRGQVVSLIRMRNPWGEVEWTGAWSDSSSEWNNVDPYERDQLRVKMEDGEFWMSFRDFMREFTRLEICNLTPDALKSRTIRKWNTTLYEGTWRRGSTAGGCRNYPATFWVNPQFKIRLDETDDPDDYGDRESGCSFVLALMQKHRRRERRFGRDMETIGFAVYEVPPELVGQPAVHLKRDFFLANASRARSEQFINLREVSTRFRLPPGEYVVVPSTFEPNKEGDFVLRFFSEKSAGTVELDDQIQANLPDEQVLSEEEIDENFKALFRQLAGEDMEISVKELRTILNRIISKHKDLRTKGFSLESCRSMVNLMDRDGNGKLGLVEFNILWNRIRNYLSIFRKFDLDKSGSMSAYEMRMAIESAGFKLNKKLYELIITRYSEPDLAVDFDNFVCCLVRLETMFRFFKTLDTDLDGVVTFDLFKWLQLTMFA
Calpain small subunit 1: MFLVNSFLKGGGGGGGGGGGLGGGLGNVLGGLISGAGGGGGGGGGGGGGGGGGGGGTAMRILGGVISAISEAAAQYNPEPPPPRTHYSNIEANESEEVRQFRRLFAQLAGDDMEVSATELMNILNKVVTRHPDLKTDGFGIDTCRSMVAVMDSDTTGKLGFEEFKYLWNNIKRWQAIYKQFDTDRSGTICSSELPGAFEAAGFHLNEHLYNMIIRRYSDESGNMDFDNFISCLVRLDAMFRAFKSLDKDGTGQIQVNIQEWLQLTMYS
[4]
  kcat: 0.015 ± 0.002 s^–1
